Data published in PMC11423328, “Catalytic Redundancies and Conformational Plasticity Drives Selectivity and Promiscuity in Quorum Quenching Lactonases” (JACS Au, 2024).
Changes are numbered by the printed parent chain. Names may count otherwise.

B1: GcL (Parageobacillus caldoxylosilyticus NBRC 107762; Y222F) (protein)
chain: MANVIKARPKLYVMDNGRMRMDKNWMIAMHNPATIHNPNAQTEFVEFPIYTVLIDHPEGKILFDTSCNPNSMGPQGRWAESTQQMFPWTATEECYLHNRLEQLKVRPEDIRYVVASHLHLDHAGCLEMFTNATIIVHEDEFNGALQCYARNQKEGAYIWADIDAWIKNNLQWRTVKRHEDNILLAEGVKVLNFGSGHAWGMLGLHVELPETGGIILASDAIFTAESYGPPIKPPGIIYDSLGYMNTVERIRRIAQETKSQVWFGHDAEQFKKFRKSTEGYYE
notes: expressed in E. coli BL21(DE3)-pGro7/GroEL with CoCl2; bimetallic Fe/Co centre; dimer
B2: GcL (Parageobacillus caldoxylosilyticus NBRC 107762; A156S) (protein)
chain: B1 chain with A156S, F222Y
notes: as for B1
B3: GcL (Parageobacillus caldoxylosilyticus NBRC 107762; A156G) (protein)
chain: B1 chain with A156G, F222Y
notes: as for B1
B4: GcL (Parageobacillus caldoxylosilyticus NBRC 107762; D121N) (protein)
chain: B1 chain with D121N, F222Y
notes: as for B1
B5: GcL (Parageobacillus caldoxylosilyticus NBRC 107762; I236M) (protein)
chain: B1 chain with F222Y, I236M
notes: as for B1
B6: GcL (Parageobacillus caldoxylosilyticus NBRC 107762; G155P) (protein)
chain: B1 chain with G155P, F222Y
notes: as for B1

Tests used:
GcL = target: T1, GcL (Parageobacillus caldoxylosilyticus, UniProt A0A023DFE8, A156S); experiment: 4-nitrophenolate release at […] nm; format: biochemical; conditions: 50 mM HEPES pH 8.0 (methods; table note pH 8.3), 150 mM NaCl, CoCl2, 25 °C
T1 construct: gene GCA01S_030_00190; expressed in E. coli BL21(DE3)-pGro7/GroEL with CoCl2; bimetallic Fe/Co centre; dimer
T1 sequence (A0A023DFE8 entry or part of it A156S): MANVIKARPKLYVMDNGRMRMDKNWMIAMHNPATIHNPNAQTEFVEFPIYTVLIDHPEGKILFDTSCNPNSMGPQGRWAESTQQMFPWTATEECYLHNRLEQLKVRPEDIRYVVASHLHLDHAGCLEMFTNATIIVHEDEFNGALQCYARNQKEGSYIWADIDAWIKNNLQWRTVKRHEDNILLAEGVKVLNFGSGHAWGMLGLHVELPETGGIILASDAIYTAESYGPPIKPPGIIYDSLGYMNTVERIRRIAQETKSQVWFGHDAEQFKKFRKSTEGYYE

purified protein [1] = substrate: CCCC(=O)N[C@H]1CCOC1=O; experiment: purified protein; format: biochemical, Parageobacillus caldoxylosilyticus; conditions: pH 8.3, 25 °C, 2.5 mM bicine, 150 mM NaCl, 0.2 mM CoCl2
purified protein [2] = substrate: CCCCCC(=O)N[C@H]1CCOC1=O; experiment: purified protein; format: biochemical, Parageobacillus caldoxylosilyticus; conditions: pH 8.3, 25 °C, 2.5 mM bicine, 150 mM NaCl, 0.2 mM CoCl2
purified protein [3] = substrate: CCCCCCCC(=O)N[C@H]1CCOC1=O; experiment: purified protein; format: biochemical, Parageobacillus caldoxylosilyticus; conditions: pH 8.3, 25 °C, 2.5 mM bicine, 150 mM NaCl, 0.2 mM CoCl2

Molecule	Km (GcL) [µM]	Km (purified protein [1]) [µM]	kcat (purified protein [1]) [s⁻¹]	kcat/Km (purified protein [1]) [M⁻¹ s⁻¹]	Km (purified protein [2]) [µM]	kcat (purified protein [2]) [s⁻¹]	kcat/Km (purified protein [2]) [M⁻¹ s⁻¹]	Km (purified protein [3]) [µM]	kcat (purified protein [3]) [s⁻¹]	kcat/Km (purified protein [3]) [M⁻¹ s⁻¹]
CCOP(=O)(OCC)Oc1ccc([N+](=O)[O-])cc1 [Paraoxon, paraoxon ethyl]	964 ± 136	–	–	–	–	–	–	–	–	–
B1	–	758 ± 275	0.79 ± 0.15	1040 ± 430	92.7 ± 36.7	5.01 ± 0.46	54100 ± 21900	–	–	–
B2	–	475 ± 103	24.9 ± 2.52	52400 ± 12500	–	–	–	–	–	–
B3	–	–	–	–	–	–	–	19.34 ± 3.28	7.97 ± 0.33	412000 ± 72000
B4	–	41.0 ± 9.14	1.74 ± 0.1	42500 ± 9800	13.0 ± 6.16	2.6 ± 0.24	200000 ± 96000	–	–	–
B5	–	–	–	–	2.38 ± 0.68	0.95 ± 0.04	399000 ± 115000	–	–	–
B6	–	–	–	–	563 ± 150	2.44 ± 0.31	4340 ± 1280	8.22 ± 2.92	1.44 ± 0.09	175000 ± 63000
